Data from US20080274905A1 (TRUSTEES OF COLUMBIA UNIVERSITY IN THE CITY OF NEW YORK, published 2008).

Columns and labels:
[1] = biological target: the molecule itself; test: cryo-electron microscopy of fluorescent Rad51 (self-association into rings)
Excerpt: The biochemically active form of Rad51 and related recombinases is an extended helical filament bound to DNA (P8, P33). Cyro-electron microscopy was used to determine whether the fluorescently tagged version of Rad51 formed structures consistent with the known forms of the wild-type protein. First, fluorescent Rad51 was mixed with double-stranded, linearized φX174 in the presence of ATP. The reaction mixes were then applied to a carbon-coated grid, flash frozen in liquid ethane, and visualized with cryo-EM (P9). […] In addition, the protein that was not bound to the DNA molecules was present as a ring-like structure, as previously reported (P16). Rad511 and several closely related proteins, are known to form ring-like structures under various reaction conditions and it is thought that these rings contain from 6-8 monomers of protein (P13-P15, P34, P35).

[2] = biological target: the molecule itself; test: two-colour quantum dot labeling of Rdh54 complexes on DNA curtains, TIRFM colocalisation (self-association)

| Protein | binding result [1] | binding result [2] |
| --- | --- | --- |
| fluorescently tagged human Rad51 (A11C Rad51 labeled with Alexa Fluor 555-maleimide) (enzyme, UniProt Q06609 1-339, looked up, Alexa Fluor 555-maleimide on Cys 11 (A11C), also called fluorescent Rad51; Alexa Fluor 555-Rad51) MAMQMQLEANCDTSVEEESFGPQPISRLEQSGINANDVKKLEEAGFHTVEAVAYAPKKELINIKGISEAKADKILAEAAKLVPMGFTTATEFHQRRSEIIQITTGSKELDKLLQGGIETGSITEMFGEFRTGKTQICHTLAVTCQLPIDRGGGEGKAMYIDTEGTFRPERLLAVAERYGLSGSDVLDNVAYARAFNTDHQTQLLYQASAMMVESRYALLIVDSATALYRTDYSGRGELSARQMHLARFLRMLLRLADEFGVAVVITNQVVAQVDGAAMFAADPKKPIGGNIIAHASTTRLYLRKGRGETRISKIYDSPSLPEAEAMFAINADGVGDAKD | binds |  |
| Rdh54 (Rad homolog 54), yeast Snf2-related homologous recombination factor (enzyme, UniProt P38086 1-958, looked up, also called Tid1) MAVISVKPRRREKILQEVKNSSVYQTVFDSGTTQMQIPKYENKPFKPPRRVGSNKYTQLKPTATAVTTAPISKAKVTVNLKRSISAGPTLNLAKKPNNLSSNENTRYFTIMYRKPTTKKHKTWSGDGYATLKASSDKLCFYNEAGKFLGSSMLPSDSDSLFETLFKAGSNEVQLDYELKENAEIRSAKEALSQNMGNPSPPTTSTTETVPSTKNDGGKYQMPLSQLFSLNTVKRFKSVTKQTNEHMTTVPKTSQNSKAKKYYPVFDVNKIDNPIVMNKNAAAEVDVIVDPLLGKFLRPHQREGVKFMYDCLMGLARPTIENPDIDCTTKSLVLENDSDISGCLLADDMGLGKTLMSITLIWTLIRQTPFASKVSCSQSGIPLTGLCKKILVVCPVTLIGNWKREFGKWLNLSRIGVLTLSSRNSPDMDKMAVRNFLKVQRTYQVLIIGYEKLLSVSEELEKNKHLIDMLVCDEGHRLKNGASKILNTLKSLDIRRKLLLTGTPIQNDLNEFFTIIDFINPGILGSFASFKRRFIIPITRARDTANRYNEELLEKGEERSKEMIEITKRFILRRTNAILEKYLPPKTDIILFCKPYSQQILAFKDILQGARLDFGQLTFSSSLGLITLLKKVCNSPGLVGSDPYYKSHIKDTQSQDSYSRSLNSGKLKVLMTLLEGIRKGTKEKVVVVSNYTQTLDIIENLMNMAGMSHCRLDGSIPAKQRDSIVTSFNRNPAIFGFLLSAKSGGVGLNLVGASRLILFDNDWNPSVDLQAMSRIHRDGQKKPCFIYRLVTTGCIDEKILQRQLMKNSLSQKFLGDSEMRNKESSNDDLFNKEDLKDLFSVHTDTKSNTHDLICSCDGLGEEIEYPETNQQQNTVELRKRSTTTWTSALDLQKKMNEAATNDDAKKSQYIRQCLVHYKHIDPARQDELFDEVITDSFTELKDSITFAFVKPGEICLREQ |  | binds |
